Measured values as given in publication PMC5760271.
Like-named read-outs stand apart in the source and are kept apart here.

Columns and labels:
Assay in all cases: limited trypsin proteolysis
[1] = molecular target: T1, FnoCas9 (Francisella tularensis novicida, UniProt A0Q5Y3 1-1629)
[2] = molecular target: T2, SpyCas9 (Streptococcus pyogenes, UniProt Q99ZW2 1-1368)
[3] = molecular target: T2, SpyCas9; remark: listed apart in the source
[4] = molecular target: T1, FnoCas9; remark: listed apart in the source

T2 sequence (Q99ZW2 whole entry): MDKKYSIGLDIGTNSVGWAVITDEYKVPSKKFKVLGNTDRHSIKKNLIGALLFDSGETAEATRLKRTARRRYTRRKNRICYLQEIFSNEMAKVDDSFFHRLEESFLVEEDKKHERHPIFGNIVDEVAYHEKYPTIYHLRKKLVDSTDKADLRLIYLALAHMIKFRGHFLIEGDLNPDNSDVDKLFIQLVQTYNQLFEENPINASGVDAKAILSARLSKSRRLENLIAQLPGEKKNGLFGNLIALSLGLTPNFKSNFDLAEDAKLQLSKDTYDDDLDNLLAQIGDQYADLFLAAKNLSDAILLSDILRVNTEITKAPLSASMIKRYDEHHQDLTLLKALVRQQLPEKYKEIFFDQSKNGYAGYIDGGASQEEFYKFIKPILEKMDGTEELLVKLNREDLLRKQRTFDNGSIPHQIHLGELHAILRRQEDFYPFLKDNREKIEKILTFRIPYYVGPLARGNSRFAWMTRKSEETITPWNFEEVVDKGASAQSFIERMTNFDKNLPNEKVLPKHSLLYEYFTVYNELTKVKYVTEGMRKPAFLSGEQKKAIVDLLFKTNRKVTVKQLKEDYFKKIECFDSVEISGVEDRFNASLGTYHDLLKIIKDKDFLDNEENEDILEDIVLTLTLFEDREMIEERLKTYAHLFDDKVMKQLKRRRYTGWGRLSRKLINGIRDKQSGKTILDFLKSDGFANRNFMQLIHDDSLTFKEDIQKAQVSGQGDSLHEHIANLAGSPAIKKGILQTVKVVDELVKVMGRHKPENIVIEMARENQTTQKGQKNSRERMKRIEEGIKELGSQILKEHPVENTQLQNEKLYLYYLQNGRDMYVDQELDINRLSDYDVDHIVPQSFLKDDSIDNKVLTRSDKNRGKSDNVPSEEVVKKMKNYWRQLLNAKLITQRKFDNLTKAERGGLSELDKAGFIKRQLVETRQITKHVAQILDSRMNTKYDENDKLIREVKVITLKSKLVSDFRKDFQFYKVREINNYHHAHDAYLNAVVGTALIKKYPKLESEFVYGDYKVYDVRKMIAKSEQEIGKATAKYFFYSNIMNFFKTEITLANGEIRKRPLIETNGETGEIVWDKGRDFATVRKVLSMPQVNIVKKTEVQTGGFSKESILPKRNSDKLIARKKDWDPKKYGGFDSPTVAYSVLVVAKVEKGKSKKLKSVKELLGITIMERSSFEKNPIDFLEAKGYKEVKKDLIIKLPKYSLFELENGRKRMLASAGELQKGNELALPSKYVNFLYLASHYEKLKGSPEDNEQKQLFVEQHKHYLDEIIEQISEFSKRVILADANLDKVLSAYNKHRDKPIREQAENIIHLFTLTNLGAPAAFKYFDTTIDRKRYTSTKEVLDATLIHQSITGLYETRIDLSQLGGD
T1 sequence (A0Q5Y3 whole entry): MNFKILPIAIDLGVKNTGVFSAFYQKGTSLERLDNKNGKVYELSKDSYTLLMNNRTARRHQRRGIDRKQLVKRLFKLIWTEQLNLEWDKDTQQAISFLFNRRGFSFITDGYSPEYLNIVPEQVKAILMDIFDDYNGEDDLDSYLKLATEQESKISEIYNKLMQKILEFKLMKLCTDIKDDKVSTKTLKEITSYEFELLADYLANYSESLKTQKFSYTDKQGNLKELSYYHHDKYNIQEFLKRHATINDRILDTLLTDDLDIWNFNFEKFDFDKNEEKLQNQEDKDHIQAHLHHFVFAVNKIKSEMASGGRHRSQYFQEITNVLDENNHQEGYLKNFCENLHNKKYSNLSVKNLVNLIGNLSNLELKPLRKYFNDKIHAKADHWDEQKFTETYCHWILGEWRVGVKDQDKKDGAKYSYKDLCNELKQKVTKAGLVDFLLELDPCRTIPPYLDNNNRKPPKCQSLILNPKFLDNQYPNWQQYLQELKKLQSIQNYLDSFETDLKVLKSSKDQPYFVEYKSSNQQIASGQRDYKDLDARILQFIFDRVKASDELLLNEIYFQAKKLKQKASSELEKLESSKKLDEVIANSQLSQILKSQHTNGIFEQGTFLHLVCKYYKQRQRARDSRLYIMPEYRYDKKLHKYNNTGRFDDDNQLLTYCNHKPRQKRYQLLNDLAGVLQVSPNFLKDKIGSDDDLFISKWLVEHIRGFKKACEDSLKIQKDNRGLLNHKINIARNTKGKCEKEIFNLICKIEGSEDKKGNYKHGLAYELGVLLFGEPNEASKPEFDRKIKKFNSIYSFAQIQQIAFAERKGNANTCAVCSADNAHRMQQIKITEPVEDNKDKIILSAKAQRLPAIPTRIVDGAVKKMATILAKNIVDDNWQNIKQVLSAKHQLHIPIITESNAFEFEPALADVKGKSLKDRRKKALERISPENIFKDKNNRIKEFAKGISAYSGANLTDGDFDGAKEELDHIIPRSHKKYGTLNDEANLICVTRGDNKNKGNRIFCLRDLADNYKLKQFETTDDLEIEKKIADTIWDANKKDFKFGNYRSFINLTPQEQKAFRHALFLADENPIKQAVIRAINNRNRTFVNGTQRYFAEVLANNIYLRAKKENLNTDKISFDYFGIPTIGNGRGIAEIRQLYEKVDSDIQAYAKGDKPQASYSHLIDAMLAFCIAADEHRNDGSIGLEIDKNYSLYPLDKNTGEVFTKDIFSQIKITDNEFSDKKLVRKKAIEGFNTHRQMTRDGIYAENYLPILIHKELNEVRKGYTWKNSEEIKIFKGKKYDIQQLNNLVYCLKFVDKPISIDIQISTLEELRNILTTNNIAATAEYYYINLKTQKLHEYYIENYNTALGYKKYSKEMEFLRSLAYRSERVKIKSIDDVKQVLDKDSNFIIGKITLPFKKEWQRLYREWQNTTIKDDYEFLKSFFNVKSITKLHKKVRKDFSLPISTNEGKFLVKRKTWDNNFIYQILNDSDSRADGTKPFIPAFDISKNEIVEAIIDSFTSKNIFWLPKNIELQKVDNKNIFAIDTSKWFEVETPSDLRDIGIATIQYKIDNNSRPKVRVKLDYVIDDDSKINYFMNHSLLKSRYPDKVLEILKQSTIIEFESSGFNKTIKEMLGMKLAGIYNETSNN

B1: FnoCas9 crRNA-tracrRNA (structured_RNA)
RNA 1: GGGAUAACUCAAUUUGUAAAAAAGUUUCAGUUGCUGAAUUAUUUGGUAAAC
RNA 2: GGGCCAAAUAAUUAAUGCUCUGUAAUCAUUUAAAAGUAUUUUGAACGGACCUCUGUUUGACACGUCUGAAUAACUAAAAAGCAAAAAUUUGCCACCUAAGUGGCUUUUUUU
binding result [1]: binds

B2: SpyCas9 sgRNA (structured_RNA)
RNA: GGGAUUUCUUCUUGCGCUUUUUGUUUUAGAGCUAUGCUGUUUUGGAAACAAAACAGCAUAGCAAGUUAAAAUAAGGCUAGUCCGUUAUCAACUUGAAAAAGUGGCACCGAGUCGGUGCUUUUUU
binding result [2]: binds

B3: 60-mer ss oligo (197-FR) (ssDNA)
DNA: AGCAGATTGTACTGAGAGTGCACCATATGCGGTGTGAAATACCGCACAGATGCGTAAGGA
binding result [3]: binds
binding result [4]: binds
